We go through one molecule from patent US20050143285A1.

Experiment [1] concerns the target T1, Aplysia californica acetylcholine binding protein (AChBP) (Aplysia californica).
T1 chain: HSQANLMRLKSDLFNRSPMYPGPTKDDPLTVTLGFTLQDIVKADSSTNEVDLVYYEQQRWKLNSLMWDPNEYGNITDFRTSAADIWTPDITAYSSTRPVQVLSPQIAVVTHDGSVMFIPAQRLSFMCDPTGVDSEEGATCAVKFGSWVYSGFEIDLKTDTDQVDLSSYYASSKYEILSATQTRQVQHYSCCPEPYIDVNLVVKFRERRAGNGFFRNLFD

For experiment [2], the target named is T2, Lymnaea stagnalis acetylcholine binding protein (AChBP) (Lymnaea stagnalis), P58154. Kind of experiment: stopped-flow spectrofluorimetry.
T2 sequence (P58154 20-229): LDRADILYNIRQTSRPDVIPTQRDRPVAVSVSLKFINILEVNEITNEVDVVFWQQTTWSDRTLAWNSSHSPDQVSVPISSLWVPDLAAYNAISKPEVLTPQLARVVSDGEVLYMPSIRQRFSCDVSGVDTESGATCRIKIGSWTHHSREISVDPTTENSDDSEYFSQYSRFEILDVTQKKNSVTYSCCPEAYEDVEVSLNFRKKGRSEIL
The target of experiment [3] is T1, Aplysia californica acetylcholine ….
In experiment [4] the target is T2, Lymnaea stagnalis acetylcholine binding ….
Experiment [5] concerns the target T1, Aplysia californica acetylcholine ….
The target is the same in experiment [6]. Kind of experiment: stopped-flow spectrofluorimetry, excitation 280 nm, emission above 305 nm.
The target in experiment [7] is T2, Lymnaea stagnalis acetylcholine binding …. Described as above.
Experiment [8] has the same target. Kind of experiment: ratio of Kd on Lymnaea AChBP to Kd on Aplysia AChBP.

B1: α-conotoxin ImI, P50983 5-16 (peptide)
peptide: GCCSDPRCAWRC
modifications: not checked
Regarding B1, the fold greater affinity than for L-AChBP in experiment [1] is > 10000 fold. Moreover, the koff (as a rule, the first-order rate constant of dissociation) in experiment [2] was 19 s⁻¹; in experiment [5] it was 0.01 s⁻¹. Also, the Kd (usually the concentration at which binding is half-saturated) in experiment [3] came to 0.00088 µM; in experiment [4], 14 µM. Also, the values for the kon in experiment [6] and in experiment [7] were 1.6e+07 M⁻¹ s⁻¹ and 1.4e+06 M⁻¹ s⁻¹, respectively. In addition, the Kd Ratio L/A in experiment [8] amounted to 16000.
